Measurements from PMC6018924, “Brassinosteroids regulate pavement cell growth by mediating BIN2-induced microtubule stabilization” (Journal of Experimental Botany, 2018).

Columns and labels:
Test in all cases: pull-down; GST fusion bound to GST resin in 1× PBS pH 7.4, 0.1% Triton X-100, 2 h at 4 °C; incubated with purified tubulin-His 2 h at 4 °C; western blot with anti-His antibody
Conditions in all cases: both partners purified
TUB4–His = biological target: T1, TUB4–His (Arabidopsis, UniProt P24636 1-444)
T1 construct: β-tubulin TUB4 of Arabidopsis, gene cloned into pET28a; also called tubulin–His; source: E. coli (Rosetta strain), purified using Ni-NTA agarose

TUA3–His = biological target: T2, TUA3–His (Arabidopsis, UniProt Q56WH1 1-450)
T2 construct: α-tubulin TUA3 of Arabidopsis, gene cloned into pET28a; also called tubulin–His; source: E. coli (Rosetta strain), purified using Ni-NTA agarose

TUB3–His = biological target: T3, TUB3–His (Arabidopsis, UniProt Q9ASR0 1-450)
T3 construct: β-tubulin TUB3 of Arabidopsis, gene cloned into pET28a; also called tubulin–His; source: E. coli (Rosetta strain), purified using Ni-NTA agarose

TUB6–His = biological target: T4, TUB6–His (Arabidopsis, UniProt P29514 1-449)
T4 construct: β-tubulin TUB6 of Arabidopsis, gene cloned into pET28a; also called tubulin–His; source: E. coli (Rosetta strain), purified using Ni-NTA agarose

TUA1–His = biological target: T5, TUA1–His (Arabidopsis, UniProt P11139 1-450)
T5 construct: α-tubulin TUA1 of Arabidopsis, gene cloned into pET28a; also called tubulin–His; source: E. coli (Rosetta strain), purified using Ni-NTA agarose

TUB8–His = biological target: T6, TUB8–His (Arabidopsis, UniProt P29516 1-449)
T6 construct: β-tubulin TUB8 of Arabidopsis, gene cloned into pET28a; also called tubulin–His; source: E. coli (Rosetta strain), purified using Ni-NTA agarose

TUB7–His = biological target: T7, TUB7–His (Arabidopsis, UniProt P29515 1-449)
T7 construct: β-tubulin TUB7 of Arabidopsis, gene cloned into pET28a; also called tubulin–His; source: E. coli (Rosetta strain), purified using Ni-NTA agarose

TUA5–His = biological target: T8, TUA5–His (Arabidopsis, UniProt B9DHQ0 1-450)
T8 construct: α-tubulin TUA5 of Arabidopsis, gene cloned into pET28a; also called tubulin–His; source: E. coli (Rosetta strain), purified using Ni-NTA agarose
T8 sequence (B9DHQ0 whole entry): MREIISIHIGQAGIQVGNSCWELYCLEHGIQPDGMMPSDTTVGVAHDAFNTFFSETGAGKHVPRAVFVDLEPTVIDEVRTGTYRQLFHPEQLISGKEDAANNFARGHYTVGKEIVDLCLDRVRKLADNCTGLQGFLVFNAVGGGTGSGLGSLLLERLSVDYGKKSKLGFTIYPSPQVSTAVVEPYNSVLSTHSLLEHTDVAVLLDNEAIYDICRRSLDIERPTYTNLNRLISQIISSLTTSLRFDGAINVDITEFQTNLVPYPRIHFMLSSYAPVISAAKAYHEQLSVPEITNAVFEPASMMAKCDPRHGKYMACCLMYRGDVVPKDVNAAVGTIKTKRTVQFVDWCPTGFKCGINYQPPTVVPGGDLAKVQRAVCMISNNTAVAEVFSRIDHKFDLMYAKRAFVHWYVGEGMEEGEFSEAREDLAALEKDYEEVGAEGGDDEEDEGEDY

T7 sequence (P29515 whole entry): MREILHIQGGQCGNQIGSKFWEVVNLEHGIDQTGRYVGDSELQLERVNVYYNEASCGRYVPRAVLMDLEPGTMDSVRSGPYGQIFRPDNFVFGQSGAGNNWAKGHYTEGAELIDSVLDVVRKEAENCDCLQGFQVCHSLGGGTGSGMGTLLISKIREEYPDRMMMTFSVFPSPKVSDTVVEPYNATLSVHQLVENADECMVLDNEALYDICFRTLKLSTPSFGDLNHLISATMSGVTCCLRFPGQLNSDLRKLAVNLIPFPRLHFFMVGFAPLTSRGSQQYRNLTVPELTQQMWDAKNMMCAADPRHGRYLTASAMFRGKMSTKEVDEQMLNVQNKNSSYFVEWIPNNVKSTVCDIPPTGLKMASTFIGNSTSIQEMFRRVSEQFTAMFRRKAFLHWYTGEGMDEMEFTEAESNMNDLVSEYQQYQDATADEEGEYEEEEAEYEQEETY
T5 sequence (P11139 whole entry): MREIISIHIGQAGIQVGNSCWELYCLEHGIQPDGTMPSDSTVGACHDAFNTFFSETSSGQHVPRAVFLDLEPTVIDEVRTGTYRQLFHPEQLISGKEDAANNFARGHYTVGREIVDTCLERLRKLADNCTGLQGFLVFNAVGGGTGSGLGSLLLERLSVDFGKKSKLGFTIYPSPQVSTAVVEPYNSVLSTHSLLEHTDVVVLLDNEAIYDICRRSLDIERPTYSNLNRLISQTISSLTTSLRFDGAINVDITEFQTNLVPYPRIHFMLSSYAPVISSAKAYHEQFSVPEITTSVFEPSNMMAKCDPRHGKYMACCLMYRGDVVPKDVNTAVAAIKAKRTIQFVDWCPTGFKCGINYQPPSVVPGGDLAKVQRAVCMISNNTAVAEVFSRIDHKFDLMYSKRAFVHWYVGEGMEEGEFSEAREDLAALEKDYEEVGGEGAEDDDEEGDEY
T6 sequence (P29516 whole entry): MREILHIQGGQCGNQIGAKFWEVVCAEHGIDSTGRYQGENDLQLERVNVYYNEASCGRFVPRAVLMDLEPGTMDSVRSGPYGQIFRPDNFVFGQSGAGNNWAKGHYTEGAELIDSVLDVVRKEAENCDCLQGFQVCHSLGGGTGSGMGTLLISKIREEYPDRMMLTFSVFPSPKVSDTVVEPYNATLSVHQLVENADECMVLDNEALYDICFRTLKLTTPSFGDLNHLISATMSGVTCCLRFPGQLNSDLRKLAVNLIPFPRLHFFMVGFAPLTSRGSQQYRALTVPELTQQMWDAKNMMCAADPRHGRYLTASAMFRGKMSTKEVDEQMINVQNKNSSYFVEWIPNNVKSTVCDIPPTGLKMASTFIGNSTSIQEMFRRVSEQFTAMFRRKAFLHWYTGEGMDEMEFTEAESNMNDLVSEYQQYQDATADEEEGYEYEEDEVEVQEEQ
T3 sequence (Q9ASR0 whole entry): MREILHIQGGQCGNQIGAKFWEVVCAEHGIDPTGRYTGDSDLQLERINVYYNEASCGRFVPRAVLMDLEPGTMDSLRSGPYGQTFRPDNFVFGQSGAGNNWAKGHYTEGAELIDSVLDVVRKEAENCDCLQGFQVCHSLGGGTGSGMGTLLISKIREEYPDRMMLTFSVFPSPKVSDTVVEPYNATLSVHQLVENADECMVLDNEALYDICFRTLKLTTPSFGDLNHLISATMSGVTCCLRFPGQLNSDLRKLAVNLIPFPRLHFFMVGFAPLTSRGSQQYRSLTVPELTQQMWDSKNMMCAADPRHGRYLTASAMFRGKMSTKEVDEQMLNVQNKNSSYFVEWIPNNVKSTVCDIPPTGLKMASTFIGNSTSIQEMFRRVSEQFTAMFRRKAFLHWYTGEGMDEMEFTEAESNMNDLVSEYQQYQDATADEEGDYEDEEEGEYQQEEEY
T2 sequence (Q56WH1 whole entry): as the sequence (B9DHQ0 whole entry) above
T4 sequence (P29514 whole entry): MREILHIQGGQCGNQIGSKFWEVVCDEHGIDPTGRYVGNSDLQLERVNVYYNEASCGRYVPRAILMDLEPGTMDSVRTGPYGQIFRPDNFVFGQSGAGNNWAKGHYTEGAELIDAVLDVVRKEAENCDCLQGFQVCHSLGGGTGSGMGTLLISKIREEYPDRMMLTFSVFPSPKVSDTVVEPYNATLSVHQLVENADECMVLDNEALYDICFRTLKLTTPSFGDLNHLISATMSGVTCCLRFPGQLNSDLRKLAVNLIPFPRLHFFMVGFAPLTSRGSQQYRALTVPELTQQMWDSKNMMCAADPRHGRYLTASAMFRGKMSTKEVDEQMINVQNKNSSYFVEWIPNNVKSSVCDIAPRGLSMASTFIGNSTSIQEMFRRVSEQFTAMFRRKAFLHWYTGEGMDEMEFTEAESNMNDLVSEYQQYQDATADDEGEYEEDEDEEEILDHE
T1 sequence (P24636 whole entry): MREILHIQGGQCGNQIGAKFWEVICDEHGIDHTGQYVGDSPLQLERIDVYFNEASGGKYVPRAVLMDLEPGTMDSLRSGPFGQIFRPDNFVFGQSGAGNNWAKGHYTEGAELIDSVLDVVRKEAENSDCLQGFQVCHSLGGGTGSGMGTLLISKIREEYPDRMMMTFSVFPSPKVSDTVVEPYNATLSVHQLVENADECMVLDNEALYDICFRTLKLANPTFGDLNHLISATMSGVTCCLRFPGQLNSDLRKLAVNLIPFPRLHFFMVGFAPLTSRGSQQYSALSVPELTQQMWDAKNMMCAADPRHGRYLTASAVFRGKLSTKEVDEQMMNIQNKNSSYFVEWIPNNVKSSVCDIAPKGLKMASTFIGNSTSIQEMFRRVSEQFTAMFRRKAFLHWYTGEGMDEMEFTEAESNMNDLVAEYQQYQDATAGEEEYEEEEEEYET

binding result (TUB4–His): binds
binding result (TUA3–His): binds
binding result (TUB3–His): binds
binding result (TUB6–His): binds
binding result (TUA1–His): binds
binding result (TUB8–His): binds
binding result (TUB7–His): binds
binding result (TUA5–His): binds
B1: GST–BIN2 (BRASSINOSTEROID …2) (enzyme, Arabidopsis, UniProt Q39011 1-380, looked up)
chain: MADDKEMPAAVVDGHDQVTGHIISTTIGGKNGEPKQTISYMAERVVGTGSFGIVFQAKCLETGETVAIKKVLQDRRYKNRELQLMRVMDHPNVVCLKHCFFSTTSKDELFLNLVMEYVPESLYRVLKHYSSANQRMPLVYVKLYMYQIFRGLAYIHNVAGVCHRDLKPQNLLVDPLTHQVKICDFGSAKQLVKGEANISYICSRFYRAPELIFGATEYTTSIDIWSAGCVLAELLLGQPLFPGENAVDQLVEIIKVLGTPTREEIRCMNPHYTDFRFPQIKAHPWHKIFHKRMPPEAIDFASRLLQYSPSLRCTALEACAHPFFDELREPNARLPNGRPFPPLFNFKQEVAGSSPELVNKLIPDHIKRQLGLSFLNQSGT
notes: BRASSINOSTEROID …2 (BIN2), GSK3-like kinase of Arabidopsis, 380 aa; also called BIN2–GST; source: E. coli (Rosetta strain), purified using glutathione resin
